Measured values: US6969517 (dated 2005)
Where a chain is given by its changes, count along the chain named. Where two headings read alike, the source gives them in different places. Values belong to the binder of their own block, whether it stands above or below them.

What was measured:
EpCAM (KSA) [1] = molecular target: T1, EpCAM (KSA) (human, UniProt P16422); experiment: SPR
T1 chain: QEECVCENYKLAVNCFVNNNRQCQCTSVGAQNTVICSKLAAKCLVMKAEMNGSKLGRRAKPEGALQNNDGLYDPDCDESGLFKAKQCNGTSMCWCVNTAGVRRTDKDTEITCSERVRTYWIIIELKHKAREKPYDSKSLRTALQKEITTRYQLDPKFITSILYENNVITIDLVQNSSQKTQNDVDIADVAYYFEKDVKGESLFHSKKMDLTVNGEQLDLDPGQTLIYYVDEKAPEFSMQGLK

EpCAM (KSA) [2] = molecular target: T1, EpCAM (KSA); experiment: SPR
EpCAM (KSA) [3] = molecular target: T1, EpCAM (KSA); experiment: ELISA
EpCAM (KSA) [4] = molecular target: T1, EpCAM (KSA); experiment: ELISA

- Kd (EpCAM (KSA) [1]): 7.9 nM
B1: VK1/VH1-IL2 (antibody, V domains shown)
VH: QIQLVQSGPELKKPGSSVKISCKASGYTFTNYGMNWVRQAPGKGLKWMGWINTYTGEPTYADDFKGRFTITAETSTSTLYLQLNNLRSEDTATYFCVRFMSKGDYWGQGTTVTVSS
VL: QIVLTQSPASLAVSPGQRATITCSASSSVSYILWYQQKPGQPPKPWIFDTSNLASGFPSRFSGSGSGTSYTLTINSLEAEDAATYYCHQRSGYPYTFGGGTKVEIK

- Kd (EpCAM (KSA) [1]): 3.1 nM
B2: VK1/VH2-IL2 (antibody, V domains shown)
VH: B1 VH with M100I
VL: B1 VL

- Kd (EpCAM (KSA) [1]): 1 nM
B3: VK8/VH7-IL2 (antibody, V domains shown)
VH: QIQLVQSGAEVKKPGETVKISCKASGYTFTNYGMNWVKQTPGKGLKWMGWINTYTGEPTYADDFKGRFAFSLETSTSTAFLQINNLRSEDTATYFCVRFISKGDYWGQGTSVTVSS
VL: EIVLTQSPATLSLSPGERVTLTCSASSSVSYMLWYQQKPGSSPKPWIFDTSNLASGFPARFSGSGSGTSYSLIISSMEAEDAATYYCHQRSGYPYTFGGGTKLEIK

- Kd (EpCAM (KSA) [2]): 1 nM
B4: VK0/VH0 (hybridoma chKS-1/4) (antibody, V domains shown)
VH: B3 VH with A9P, V11L, K38R, T40A, A69V, T76A, I83L
VL: B3 VL with E1Q, V3L, T10I, L11M, L13A, R18K, L21M

- Kd (EpCAM (KSA) [2]): 1 nM
B5: VK8/VH7 (Construct 3) (antibody, V domains shown)
VH: B3 VH
VL: B3 VL

- binding result (EpCAM (KSA) [3]): no binding
B6: '369 chKS-1/4 (VK0/VH'369) (antibody, V domains shown)
VH: QIQLVQSGPELKKPGETVKISCKASGYTFTNYGMNWVKQTPGKGLKWMGWINTYTGEPTYADDFKGRFAFSLETSASTAFLQIQQPQNMRTMATYFCVRFISKGDYWGQGTSVTVSS
VL: B3 VL with E1Q, V3L, T10I, L11M, L13A, R18K, L21M

- binding result (EpCAM (KSA) [4]): no binding
B7: VK6/VH6 (Construct 1) (antibody, V domains shown)
VH: QVQLVQSGAEVKKPGESVKISCKASGYTFTNYGMNWVRQAPGKGLEWMGWINTYTGEPTYAQKFQGRVTISLDTSTSTAYLQLSSLRAEDTAVYFCVRFISKGDYWGQGTSVTVSS
VL: EIVLTQSPATLSLSPGERVTLTCSASSSVSYMLWYQQKPGQAPKLLIFDTSNLASGIPARFSGSGSGTDYTLTISSLEPEDFAVYYCHQRSGYPYTFGGGTKLEIK
